B1: Protein sprouty homolog 1 (Homo sapiens), O43609 (parent)
chain: MDPQNQHGSGSSLVVIQQPSLDSRQRLDYEREIQPTAILSLDQIKAIRGSNEYTEGPSVVKRPAPRTAPRQEKHERTHEIIPINVNNNYEHRHTSHLGHAVLPSNARGPILSRSTSTGSAASSGSNSSASSEQGLLGRSPPTRPVPGHRSERAIRTQPKQLIVDDLKGSLKEDLTQHKFICEQCGKCKCGECTAPRTLPSCLACNRQCLCSAESMVEYGTCMCLVKGIFYHCSNDDEGDSYSDNPCSCSQSHCCSRYLCMGAMSLFLPCLLCYPPAKGCLKLCRRCYDWIHRPGCRCKNSNTVYCKLESCPSRGQGKPS
B2: Protein sprouty homolog 2 (Homo sapiens), O43597 (parent)
chain: MEARAQSGNGSQPLLQTPRDGGRQRGEPDPRDALTQQVHVLSLDQIRAIRNTNEYTEGPTVVPRPGLKPAPRPSTQHKHERLHGLPEHRQPPRLQHSQVHSSARAPLSRSISTVSSGSRSSTRTSTSSSSSEQRLLGSSFSSGPVADGIIRVQPKSELKPGELKPLSKEDLGLHAYRCEDCGKCKCKECTYPRPLPSDWICDKQCLCSAQNVIDYGTCVCCVKGLFYHCSNDDEDNCADNPCSCSQSHCCTRWSAMGVMSLFLPCLWCYLPAKGCLKLCQGCYDRVNRPGCRCKNSNTVCCKVPTVPPRNFEKPT

Columns and labels:
cbl_human CBL, P22681 [1] = variants of: B1; conditions: with cbl_human CBL
grb2_human GRB2, P62993 [2] = variants of: B1; conditions: with grb2_human GRB2, P62993
cbl_human CBL, P22681 [3] = variants of: B2; conditions: with cbl_human CBL; remark: listed apart in the source
grb2_human GRB2, P62993 [4] = variants of: B2; conditions: with grb2_human GRB2, P62993; remark: listed apart in the source

effect of a mutation on the interaction (cbl_human CBL, P22681 [1]) | effect of a mutation on the interaction (grb2_human GRB2, P62993 [2]) | effect of a mutation on the interaction (cbl_human CBL, P22681 [3]) | effect of a mutation on the interaction (grb2_human GRB2, P62993 [4]) | Variant
disrupting interaction | decreasing interaction | – | – | Y53F
– | – | disrupting interaction | decreasing interaction | Y55F

From IntAct's records for PubMed 16893902
